{
  "source": "paper PMC10582422",
  "about": "“Alzheimer's Progenitor Amyloid‐β Targets and Dissolves Microbial Amyloids and Impairs Biofilm Function” (Advanced Science, 2023)",
  "molecules": {"B1": {"name": "Lecanemab: humanized IgG1 monoclonal antibody that binds with soluble protofibrils of Aβ (antibody, chains of the INN, looked up, V domains shown)", "VH": "EVQLVESGGGLVQPGGSLRLSCSASGFTFSSFGMHWVRQAPGKGLEWVAYISSGSSTIYYGDTVKGRFTISRDNAKNSLFLQMSSLRAEDTAVYYCAREGGYYYGRSYYTMDYWGQGTTVTVSS", "VL": "DVVMTQSPLSLPVTPGAPASISCRSSQSIVHSNGNTYLEWYLQKPGQSPKLLIYKVSNRFSGVPDRFSGSGSGTDFTLRISRVEAEDVGIYYCFQGSHVPPTFGPGTKLEIK"}, "B2": {"name": "FapC: FapC prepared recombinantly in E. coli; amyloid protein secreted by P. aeruginosa (protein, UniProt Q9I2F0 25-340, looked up)", "Functional amyloid subunit …": "GNEGGWHPPKPNPQSNNKGGATALVVDTQQNYNNKVSNFGTLNNASVSGSIKDASGNVGVNVAAGDNNQQANAAALASADASFVFGTATASTSVLQSGYGNTLNNYSNPNTASLSNSANNVSGNLGVNVAAGNFNQQKNDLAAAVSNGQYSTAGSAASQTSTGNTTVNSANYAYGGTYVSLKLNADGSYKGTSDQIGDVYLDTWEGQTHPGGSNTGHIDVDSQAQGAKDLNHDGGAFAFKEKGDVDLKGTVSGFIPAIVGFKTPVTNNASLSNSLQNVSGNVGVNIAAGGGNQQSNSLSIAAGCSSCPAGGESLGF"}, "B3": {"name": "sonicated FapC: Sonicated FapC seeds used as control (protein, UniProt Q9I2F0 25-340, looked up)", "Functional amyloid subunit …": "B2 Functional amyloid subunit …", "modifications": "sonicated fibril seeds", "notes": "Sonicated FapC seeds used as control"}},
  "key": {"E. coli K‐12": {"tested_on": "E. coli K‐12", "assay": "Antimicrobial sensitivity assay (MBEC peg biofilm), K-12", "type": "cell-based", "details": "combined with Pen", "description": "(§1) Microbial culture of K12 and PAO1 were added to 96‐well plates at OD 0.3 and incubated overnight at the static condition at 37 °C with Minimum Biofilm Eradication Concentration (MBEC) peg lids (Innovotech, Edmonton, Canada) where biofilms were formed on the pegs. […] After overnight incubation in the challenge plate, peg lids were removed, and swabs of the culture were picked from the pegs and streaked onto LB agar plates. The plates were incubated overnight at 37 °C and surviving colonies were confirmed by visual inspection and counted with the software Promega Colony Counter."}, "P. aeruginosa PAO1": {"tested_on": "P. aeruginosa PAO1", "assay": "Antimicrobial sensitivity assay (MBEC peg biofilm), PAO1", "type": "cell-based", "details": "combined with Pen", "description": "as §1"}, "Caco‐2 cells": {"tested_on": "Caco‐2 cells", "assay": "Cell adhesion of FapC and CsgA amyloids to Caco-2 cells", "type": "cell-based", "details": "Alexa647-labelled, 10 µM, 24 h", "description": "In comparison, FapC or CsgA amyloids alone (10 µM), labelled with Alexa647, were incubated with the cells under the same conditions. […] The cells were incubated for additional 24 h. All the cells in this experiment were fixed in 4% PFA, washed with PBS and then subjected to confocal imaging as described above. The size and number of the FapC or CsgA amyloids attached to the membrane of Caco‐2 cells were quantified from the images using Fiji ImageJ software."}, "CsgA fibrils [1]": {"target": "T1, CsgA fibrils (Escherichia coli, UniProt P28307)", "T1 construct": "made in house; host or cells: E. coli", "T1 sequence (P28307 21-151)": "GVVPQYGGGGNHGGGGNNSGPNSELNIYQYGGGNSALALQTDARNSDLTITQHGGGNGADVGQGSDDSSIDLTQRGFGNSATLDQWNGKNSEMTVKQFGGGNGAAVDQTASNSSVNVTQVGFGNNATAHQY", "type": "biochemical, E. coli", "description": "(§2) The percentage secondary structure was calculated by the CD data via Dichroweb analysis with parameters of Contin/reference set 4."}, "Zeta potential": {"assay": "Zeta potential", "type": "physicochemical", "details": "Malvern Zetasizer Nano; fibrils"}, "CsgA fibrils [2]": {"target": "T1, CsgA fibrils", "type": "biochemical, E. coli", "details": "DLS, incubated without Aβ, as for TEM; n = 3", "description": "(§3) Quartz cells with low volume capacity (100 µL) were used and measurements were performed using a Malvern Zetasizer Nano Series running DTS software and using a 4 mW He−Ne laser operating at a wavelength of 633 nm and equipped with an avalanche photodiode (APD) detector. The scattered light was detected at an angle of 173°."}, "FapC fibrils [3]": {"tested_on": "FapC fibrils", "assay": "TEM of FapC fibrils incubated with peptide", "type": "biochemical, P. aeruginosa", "details": "TEM at 1, 2 and 3 weeks", "source_text": "The samples were blotted with filter paper and grids were blotted twice with deionized water and then a drop of 1% uranyl acetate was placed on the grids for 30 s for negative staining. […] […] TEM grids were imaged with a Hitachi HT7700 TEM operating at 120 kV."}, "FapC fibrils [4]": {"tested_on": "FapC fibrils", "assay": "ThT assay: disintegration of preformed FapC fibrils", "type": "biochemical, P. aeruginosa", "details": "1.8 – 15 µM against 50 µM FapC; ThT 72 h", "description": "FapC and CsgA fibrils were pre‐incubated with 50 µM of Thioflavin T dye for 3 h. […] The instrument was set to agitate the plate for 5 s before every reading. […]"}, "Aβ": {"tested_on": "Aβ", "details": "cited from earlier work", "source_text": "Amyloid‐β (Aβ) is a peptide generated from the proteolytic cleavage of amyloid precursor protein (APP) expressed on the membrane and synapses of neurons. Based on the combination of enzymes that cleave APP, i.e., α‐, β‐ or γ‐secretase, the resulting Aβ can be a 40 (Aβ40) or 42 (Aβ42) residue peptide that is intrinsically disordered in structure.^[ [1] ^] Different environmental factors, familial mutations or localized concentrations of Aβ can trigger the aggregation of Aβ into oligomers. The oligomers can subsequently assemble into long twisted fibrils characterized by a so‐called amyloid fold ..."}, "FapC fibrils [5]": {"tested_on": "FapC fibrils", "assay": "DLS size of FapC fibrils", "type": "biochemical, P. aeruginosa", "details": "incubated without Aβ, as for TEM, n = 3", "description": "as §3"}, "FapC fibrils [6]": {"tested_on": "FapC fibrils", "assay": "CD spectroscopy of FapC fibrils", "type": "biochemical, P. aeruginosa", "description": "as §2"}, "FapC monomers": {"tested_on": "FapC monomers", "assay": "Self-seeding / fibrillization of FapC monomers (ThT, TEM)", "type": "biochemical, P. aeruginosa", "details": "FapC monomers 15 µM"}, "[7]": {"details": "CD, Dichroweb Contin/reference set 4, 50 µM"}},
  "data": [
    {"molecule": "[H]/N=C(/N)N[C@H]1[C@H](O)[C@@H](O)[C@H](O[C@@H]2O[C@@H](C)[C@](O)(C=O)[C@H]2O[C@@H]2O[C@@H](CO)[C@H](O)[C@@H](O)[C@@H]2NC)[C@@H](N/C(N)=N\\[H])[C@@H]1O", "note": "[Strep]", "values": [
      {"measurement": "minimum concentration with slight antimicrobial effect (Strep), K-12", "setting": "E. coli K‐12", "value": "5e-06", "unit": "µg/mL"},
      {"measurement": "minimum concentration with slight antimicrobial effect (Strep), PAO1", "setting": "P. aeruginosa PAO1", "value": "5e-06", "unit": "µg/mL"}
    ]},
    {"molecule": "CsgA: CsgA prepared recombinantly in E. coli; major subunit of the curli protein", "values": [
      {"measurement": "size of amyloid aggregates attached to Caco-2 membrane, without Aβ", "setting": "Caco‐2 cells", "value": "≈ 30 µm"},
      {"measurement": "CD negative peak, CsgA fibrils alone", "setting": "CsgA fibrils [1]; 50 µM CsgA without Aβ, 48 h", "value": 214, "unit": "nm"},
      {"measurement": "β‐sheet content of CsgA fibrils, without Aβ", "setting": "CsgA fibrils [1]; [7]", "value": 42, "unit": "%"},
      {"measurement": "zeta potential", "setting": "Zeta potential", "value": 37, "unit": "mV"},
      {"measurement": "hydrodynamic radius of CsgA fibrils, without Aβ", "setting": "CsgA fibrils [2]", "value": "≈ 1500 nm"}
    ]},
    {"molecule": "IAPP: human islet amyloid polypeptide (KCNTATCATQRLANFLVHSSNNFGAILSSTNVGSNTY; Islet amyloid polypeptide; UniProt P10997 34-70, looked up)", "values": [
      {"measurement": "TEM remodeling of FapC fibrils by IAPP or aSyn monomers", "setting": "FapC fibrils [3]", "value": "no remodeling effect was observed for FapC fibrils"},
      {"measurement": "disintegration of FapC amyloids by IAPP or aSyn", "setting": "FapC fibrils [4]", "value": "did not show any disintegration of FapC amyloids"}
    ]},
    {"molecule": "Solanezumab: monoclonal antibody in clinical trials", "values": [
      {"measurement": "efficacy in phase 3 trials", "setting": "Aβ; mild form of Alzheimer's disease, ref [6], [7]", "value": "some efficacy but not much promise in phase 3 trials"}
    ]},
    {"molecule": "B1", "values": [
      {"measurement": "efficacy in phase 2 clinical trials", "setting": "Aβ; early onset Alzheimer's disease, ref [8]", "value": "limited improvement in cognition and reduced Aβ burden"}
    ]},
    {"molecule": "B2", "values": [
      {"measurement": "hydrodynamic radius of FapC fibrils, without Aβ", "setting": "FapC fibrils [5]", "value": "≈ 550 nm"},
      {"measurement": "size of amyloid aggregates attached to Caco-2 membrane, without Aβ", "setting": "Caco‐2 cells", "value": "≈ 30 µm"},
      {"measurement": "CD negative peak, FapC fibrils alone", "setting": "FapC fibrils [6]; 50 µM FapC without Aβ, 48 h", "value": 214, "unit": "nm"},
      {"measurement": "random coil content of FapC fibrils, without Aβ", "setting": "FapC fibrils [6]; [7]", "value": 22, "unit": "%"},
      {"measurement": "β‐sheet content of FapC fibrils, without Aβ", "setting": "FapC fibrils [6]; [7]", "value": 47, "unit": "%"},
      {"measurement": "zeta potential", "setting": "Zeta potential", "value": 47, "unit": "mV"}
    ]},
    {"molecule": "B3", "values": [
      {"measurement": "self-seeding of FapC monomers by sonicated seeds", "setting": "FapC monomers", "value": "a significant increase in ThT kinetics was observed"}
    ]}
  ]
}
